# US20230165982A1 (HOBER BIOTECH, published 2023)
# B1: 99mTc-ADAPT6 (designed binder)
# chain: GSSHHHHHHDEAVDANSLAAAKETALYHLDRLGVADAYKDLIDKAKTVEGVKARYFEILHALP
# modifications: also: 99mTc(CO)3 chelated by the His6 subsequence (residues 4-9)
# Target: Human epidermal growth factor receptor 2 (HER2) (human, UniProt P04626 23-1255)
# Assay: cell-based or functional assay
binder,measurement,value
B1,"tumor-to-contralateral breast ratio (SPECT), 2 h after injection of 250 µg",7.8
same,"tumor-to-contralateral breast ratio (SPECT), patient 17 (tumor later found FISH-negative), 2 h after injection of 1000 µg",1.33
